From US20150056162A1

Legend:
[1] = target: IL-13Rα1 ectodomain (amino acids 1-310), biotinylated (human) (UniProt P78552); test: SPR; equilibrium; conditions: ligand
[2] = target: IL-13Rα1 ectodomain (amino acids 1-310), biotinylated (human) (UniProt P78552); test: SPR; kinetic; conditions: ligand

IL-13Rα1 ectodomain (amino acids 1-310), biotinylated (human), sequence (P78552 other isoform, or with tags, fused parts or gaps): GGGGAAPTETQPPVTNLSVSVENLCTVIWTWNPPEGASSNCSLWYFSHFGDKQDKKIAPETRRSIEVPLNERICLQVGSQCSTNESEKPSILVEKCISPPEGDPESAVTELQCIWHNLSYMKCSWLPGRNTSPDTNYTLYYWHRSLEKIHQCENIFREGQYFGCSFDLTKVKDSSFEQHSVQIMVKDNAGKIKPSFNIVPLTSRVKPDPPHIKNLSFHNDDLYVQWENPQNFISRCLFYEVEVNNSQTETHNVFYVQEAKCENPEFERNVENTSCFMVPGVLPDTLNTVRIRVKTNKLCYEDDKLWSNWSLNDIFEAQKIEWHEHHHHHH

Row | Kd [1] [µM] | Kd [2] [µM] | Substance
1 | 36 | – | IL-13 variant C4 (from UniProt P35225 34-146)
2 | 1.6 | – | IL-13 variant C11 (from UniProt P35225 34-146)
3 | – | 0.00438 | wild-type human IL-13 (from UniProt P35225 34-146)
